± gives the uncertainty stated by the source.
B1: DnaJ homolog subfamily C member 2, residues 451 to 503; numbered along this chain, Q99543 (parent)
chain: SKNWSEDDLQLLIKAVNLFPAGTNSRWEVIANYMNIHSSSGVKRTAKDVIGKA

Variants of: B1
Assay: abundance fitness (aPCA) (normalised: wild type 0, dead -1); higher = more abundant; growth selection in yeast, the domain comes from the species named
Conditions: Homo sapiens

Going from SKNWSEDDLQALIKAVNLFPAGTNSRWEVIANYMNIHSSSGVKRTAKDVIGKA [L11A] to SKNWSEDDLQMLIKAVNLFPAGTNSRWEVIANYMNIHSSSGVKRTAKDVIGKA [L11M], the abundance fitness rises from -0.712 ± 0.073 to -0.229 ± 0.09.

First: TKNWSEDDLQLLIKAVNLFPAGTNSRWEVIANYMNIHSSSGVKRTAKDVIGKA [S1T]
Second: SKNWSEDDLQLLIKAVNLDPAGTNSRWEVIANYMNIHSSSGVKRTAKDVIGKA [F19D]
The abundance fitness of the first is higher: -0.086 ± 0.093 for the first, -0.948 ± 0.18 for the second.

SKNWSEDDLQLLIKAVNLYPAGTNSRWEVIANYMNIHSSSGVKRTAKDVIGKA [F19Y] and SKNWSEDDLQLLIKAVNLFPAGTNSRWEVIANYMNIHSSSGVKRTIKDVIGKA [A46I] are within error of each other in abundance fitness: -0.178 ± 0.11 for the first, -0.167 ± 0.091 for the second.

Compared with SKNWSEDDLQLLIKAVNLFPAGTNSRWEVIANYMNIHSSSGVKRTEKDVIGKA [A46E], SKNWSEDDLQLLIKAVNLFPAGTNSRWEVIANYMRIHSSSGVKRTAKDVIGKA [N35R] is lower in abundance fitness: -0.067 ± 0.086 for the first, -0.59 ± 0.059 for the second.

SKNWSEDDLQLLIKAVNLFPAGTNSRWEVIANYMPIHSSSGVKRTAKDVIGKA [N35P] and SKNWSEDDLQLLIKAVNLFPAGTNSRWEVIANYMLIHSSSGVKRTAKDVIGKA [N35L] are within error of each other in abundance fitness: -1.08 ± 0.13 for the first, -1.07 ± 0.1 for the second.

First: SKNWSEDDLQLLIKAVNLFPAGTNSRWEVIANYMNWHSSSGVKRTAKDVIGKA [I36W]
Second: SKNWSEDDLQLLIKAVNLFPAGTNSRWEVIANYMNQHSSSGVKRTAKDVIGKA [I36Q]
The abundance fitness of the first is lower: -0.134 ± 0.069 for the first, 0.079 ± 0.11 for the second.

SKNWSEDDLQLLIKAVNLFPAGTNSRWEVIANYMNIHSSSGVKRTAKDSIGKA [V49S] and SKNWSEDDLQLLIKAVNLFPAGTNSRWEVIANYMNIHSSSGVKRTAKDKIGKA [V49K] are within error of each other in abundance fitness: -0.886 ± 0.094 for the first, -1.02 ± 0.13 for the second.

First: SKNPSEDDLQLLIKAVNLFPAGTNSRWEVIANYMNIHSSSGVKRTAKDVIGKA [W4P]
Second: SKNWSEDDLQLLIKAVNLFPAGTNSRWEVMANYMNIHSSSGVKRTAKDVIGKA [I30M]
The abundance fitness of the first is lower: -0.828 ± 0.1 for the first, -0.535 ± 0.071 for the second.

SKNWSEDDLQLLIKAVNLFPAGTNSRWEVPANYMNIHSSSGVKRTAKDVIGKA [I30P] and SKNWSEDDLQLLIKAVNLFPAGTNSRWEVWANYMNIHSSSGVKRTAKDVIGKA [I30W] are within error of each other in abundance fitness: -0.94 ± 0.11 for the first, -0.839 ± 0.067 for the second.

SKNWSEDDLQLLIKAVNLFPAGTNSRWEVVANYMNIHSSSGVKRTAKDVIGKA [I30V] and SKDWSEDDLQLLIKAVNLFPAGTNSRWEVIANYMNIHSSSGVKRTAKDVIGKA [N3D] are within error of each other in abundance fitness: -0.019 ± 0.057 for the first, 0.015 ± 0.095 for the second.

Compared with SKNWSEDDLQLLIKVVNLFPAGTNSRWEVIANYMNIHSSSGVKRTAKDVIGKA [A15V], SKNWSEDDLQLLIKIVNLFPAGTNSRWEVIANYMNIHSSSGVKRTAKDVIGKA [A15I] is lower in abundance fitness: -0.511 ± 0.072 for the first, -0.982 ± 0.17 for the second.

Compared with SKNWSEDDLQLLIKWVNLFPAGTNSRWEVIANYMNIHSSSGVKRTAKDVIGKA [A15W], SKNWSEGDLQLLIKAVNLFPAGTNSRWEVIANYMNIHSSSGVKRTAKDVIGKA [D7G] is higher in abundance fitness: -0.682 ± 0.1 for the first, -0.015 ± 0.057 for the second.

SKNWSESDLQLLIKAVNLFPAGTNSRWEVIANYMNIHSSSGVKRTAKDVIGKA [D7S] and SKNWSEKDLQLLIKAVNLFPAGTNSRWEVIANYMNIHSSSGVKRTAKDVIGKA [D7K] are within error of each other in abundance fitness: 0.042 ± 0.057 for the first, -0.04 ± 0.071 for the second.

First: SKNWSEDDLQLLIKAVNLFPAGTNSRWEVIRNYMNIHSSSGVKRTAKDVIGKA [A31R]
Second: SKNWSEDDLQLLIKAVNLFPAGTNSRWEVINNYMNIHSSSGVKRTAKDVIGKA [A31N]
The abundance fitness of the first is higher: -0.384 ± 0.056 for the first, -0.768 ± 0.16 for the second.

Compared with SKNWSEDDLQLLIKAVNLFPAGTNSRWEVIYNYMNIHSSSGVKRTAKDVIGKA [A31Y], SKNWSEDDLQLLIKAVNLFPAGTNSRWEVIVNYMNIHSSSGVKRTAKDVIGKA [A31V] is higher in abundance fitness: -1.08 ± 0.15 for the first, -0.397 ± 0.057 for the second.

First: SKNWSEDDLQLLAKAVNLFPAGTNSRWEVIANYMNIHSSSGVKRTAKDVIGKA [I13A]
Second: SKNWSEDDLQLLPKAVNLFPAGTNSRWEVIANYMNIHSSSGVKRTAKDVIGKA [I13P]
The abundance fitness of the first is higher: 0.14 ± 0.065 for the first, -0.537 ± 0.079 for the second.

SKNWSEDDLQLLIKAVNLFPAGTNSRWEVIANYMNIHSSKGVKRTAKDVIGKA [S40K] and SKNWSEDDLQLLIKAVNLFPAGTNSAWEVIANYMNIHSSSGVKRTAKDVIGKA [R26A] are within error of each other in abundance fitness: -0.302 ± 0.074 for the first, -0.557 ± 0.48 for the second.

SKNWVEDDLQLLIKAVNLFPAGTNSRWEVIANYMNIHSSSGVKRTAKDVIGKA [S5V] and SKNWSEDDLQLLIKAVWLFPAGTNSRWEVIANYMNIHSSSGVKRTAKDVIGKA [N17W] are within error of each other in abundance fitness: -0.676 ± 0.36 for the first, -0.348 ± 0.075 for the second.

SKNWSEDDLQLLIKAVNLFPAGTNSRWEVIANYMNIHSVSGVKRTAKDVIGKA [S39V] and SKNWSEDDLQLLIKAVNLFPAGTNGRWEVIANYMNIHSSSGVKRTAKDVIGKA [S25G] are within error of each other in abundance fitness: -0.158 ± 0.06 for the first, -0.077 ± 0.059 for the second.

SKNWSEDDLQLLIKAVNLFPGGTNSRWEVIANYMNIHSSSGVKRTAKDVIGKA [A21G] and SKNWSEDDLQLLIKAVNLFPFGTNSRWEVIANYMNIHSSSGVKRTAKDVIGKA [A21F] are within error of each other in abundance fitness: -0.122 ± 0.057 for the first, -0.096 ± 0.086 for the second.

SKNWSEDDMQLLIKAVNLFPAGTNSRWEVIANYMNIHSSSGVKRTAKDVIGKA [L9M] and SKNWSEDDDQLLIKAVNLFPAGTNSRWEVIANYMNIHSSSGVKRTAKDVIGKA [L9D] are within error of each other in abundance fitness: 0.036 ± 0.078 for the first, 0.156 ± 0.099 for the second.

First: SKNWSEDDQQLLIKAVNLFPAGTNSRWEVIANYMNIHSSSGVKRTAKDVIGKA [L9Q]
Second: SKNWSEDDPQLLIKAVNLFPAGTNSRWEVIANYMNIHSSSGVKRTAKDVIGKA [L9P]
The abundance fitness of the first is higher: 0.145 ± 0.085 for the first, -0.724 ± 0.11 for the second.

First: SKNWSEDYLQLLIKAVNLFPAGTNSRWEVIANYMNIHSSSGVKRTAKDVIGKA [D8Y]
Second: SKNWSEDVLQLLIKAVNLFPAGTNSRWEVIANYMNIHSSSGVKRTAKDVIGKA [D8V]
The abundance fitness of the first is higher: -0.712 ± 0.091 for the first, -0.937 ± 0.077 for the second.

SKNWSEDDLQLLIKAVNLFPAGTNSRWEWIANYMNIHSSSGVKRTAKDVIGKA [V29W] and SKNWSEDDLNLLIKAVNLFPAGTNSRWEVIANYMNIHSSSGVKRTAKDVIGKA [Q10N] are within error of each other in abundance fitness: -0.082 ± 0.065 for the first, -0.083 ± 0.085 for the second.

In the case of SVNWSEDDLQLLIKAVNLFPAGTNSRWEVIANYMNIHSSSGVKRTAKDVIGKA [K2V], the abundance fitness is reported as -0.365 ± 0.077.

From the Human Domainome abundance scans (Beltran et al. 2025)
